Experimental data published in IntAct's records for PubMed 31515488.

B1: Enhancer of mRNA-decapping protein 3 (Homo sapiens), Q96F86 (parent)
chain: MATDWLGSIVSINCGDSLGVYQGRVSAVDQVSQTISLTRPFHNGVKCLVPEVTFRAGDITELKILEIPGPGDNQHFGDLHQTELGPSGAGCQVGINQNGTGKFVKKPASSSSAPQNIPKRTDVKSQDVAVSPQQQQCSKSYVDRHMESLSQSKSFRRRHNSWSSSSRHPNQATPKKSGLKNGQMKNKDDECFGDDIEEIPDTDFDFEGNLALFDKAAVFEEIDTYERRSGTRSRGIPNERPTRYRHDENILESEPIVYRRIIVPHNVSKEFCTDSGLVVPSISYELHKKLLSVAEKHGLTLERRLEMTGVCASQMALTLLGGPNRLNPKNVHQRPTVALLCGPHVKGAQGISCGRHLANHDVQVILFLPNFVKMLESITNELSLFSKTQGQQVSSLKDLPTSPVDLVINCLDCPENVFLRDQPWYKAAVAWANQNRAPVLSIDPPVHEVEQGIDAKWSLALGLPLPLGEHAGRIYLCDIGIPQQVFQEVGINYHSPFGCKFVIPLHSA
B2: Zinc finger and BTB domain-containing protein 9 (Homo sapiens), Q96C00 (parent)
chain: METPTPLPPVPASPTCNPAPRTIQIEFPQHSSSLLESLNRHRLEGKFCDVSLLVQGRELRAHKAVLAAASPYFHDKLLLGDAPRLTLPSVIEADAFEGLLQLIYSGRLRLPLDALPAHLLVASGLQMWQVVDQCSEILRELETSGGGISARGGNSYHALLSTTSSTGGWCIRSSPFQTPVQSSASTESPASTESPVGGEGSELGEVLQIQVEEEEEEEEDDDDEDQGSATLSQTPQPQRVSGVFPRPHGPHPLPMTATPRKLPEGESAPLELPAPPALPPKIFYIKQEPFEPKEEISGSGTQPGGAKEETKVFSGGDTEGNGELGFLLPSGPGPTSGGGGPSWKPVDLHGNEILSGGGGPGGAGQAVHGPVKLGGTPPADGKRFGCLCGKRFAVKPKRDRHIMLTFSLRPFGCGICNKRFKLKHHLTEHMKTHAGALHACPHCGRRFRVHACFLRHRDLCKGQGWATAHWTYK
partner: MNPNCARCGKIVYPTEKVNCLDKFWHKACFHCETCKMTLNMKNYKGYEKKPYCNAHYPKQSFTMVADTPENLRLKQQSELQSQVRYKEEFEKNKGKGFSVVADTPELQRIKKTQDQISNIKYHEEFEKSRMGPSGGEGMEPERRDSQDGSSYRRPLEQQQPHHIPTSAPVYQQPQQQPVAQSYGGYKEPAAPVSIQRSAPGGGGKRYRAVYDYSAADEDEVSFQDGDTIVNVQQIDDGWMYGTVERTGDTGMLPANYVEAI
B3: Mitochondrial fission 1 protein (Homo sapiens), Q9Y3D6 (parent)
chain: MEAVLNELVSVEDLLKFEKKFQSEKAAGSVSKSTQFEYAWCLVRSKYNDDIRKGIVLLEELLPKGSKEEQRDYVFYLAVGNYRLKEYEKALKYVRGLLQTEPQNNQAKELERLIDKAMKKDGLVGMAIVGGMALGVAGLAGLIGLAVSKSKS
partner: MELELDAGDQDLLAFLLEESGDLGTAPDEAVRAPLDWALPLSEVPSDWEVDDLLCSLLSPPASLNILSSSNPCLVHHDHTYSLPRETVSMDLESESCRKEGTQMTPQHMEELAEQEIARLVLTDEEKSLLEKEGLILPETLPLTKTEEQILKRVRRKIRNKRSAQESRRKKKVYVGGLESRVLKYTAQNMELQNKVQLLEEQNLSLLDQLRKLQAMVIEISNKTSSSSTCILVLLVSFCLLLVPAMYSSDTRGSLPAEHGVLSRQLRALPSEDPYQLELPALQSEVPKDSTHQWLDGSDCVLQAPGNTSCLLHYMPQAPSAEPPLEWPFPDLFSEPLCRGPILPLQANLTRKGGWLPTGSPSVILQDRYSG
B4: Uridine diphosphate glucose pyrophosphatase NUDT22 (Homo sapiens), Q9BRQ3 (parent)
chain: MDPEVTLLLQCPGGGLPQEQIQAELSPAHDRRPLPGGDEAITAIWETRLKAQPWLFDAPKFRLHSATLAPIGSRGPQLLLRLGLTSYRDFLGTNWSSSAAWLRQQGATDWGDTQAYLADPLGVGAALATADDFLVFLRRSRQVAEAPGLVDVPGGHPEPQALCPGGSPQHQDLAGQLVVHELFSSVLQEICDEVNLPLLTLSQPLLLGIARNETSAGRASAEFYVQCSLTSEQVRKHYLSGGPEAHESTGIFFVETQNVQRLLETEMWAELCPSAKGAIILYNRVQGSPTGAALGSPALLPPL
partner: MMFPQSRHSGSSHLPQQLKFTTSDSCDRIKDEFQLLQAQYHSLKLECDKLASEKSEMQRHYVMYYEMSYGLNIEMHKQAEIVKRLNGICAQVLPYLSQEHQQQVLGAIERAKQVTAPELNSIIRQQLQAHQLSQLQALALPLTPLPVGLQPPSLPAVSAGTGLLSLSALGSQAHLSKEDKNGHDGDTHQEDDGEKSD
B5: Transmembrane protein 79 (Homo sapiens), Q9BSE2 (parent)
chain: MTEQETLALLEVKRSDSPEKSSPQALVPNGRQPEGEGGAESPGAESLRVGSSAGSPTAIEGAEDGLDSTVSEAATLPWGTGPQPSAPFPDPPGWRDIEPEPPESEPLTKLEELPEDDANLLPEKAARAFVPIDLQCIERQPQEDLIVRCEAGEGECRTFMPPRVTHPDPTERKWAEAVVRPPGCSCGGCGSCGDREWLRAVASVGAALILFPCLLYGAYAFLPFDVPRLPTMSSRLIYTLRCGVFATFPIVLGILVYGLSLLCFSALRPFGEPRREVEIHRRYVAQSVQLFILYFFNLAVLSTYLPQDTLKLLPLLTGLFAVSRLIYWLTFAVGRSFRGFGYGLTFLPLLSMLMWNLYYMFVVEPERMLTATESRLDYPDHARSASDYRPRPWG
partner: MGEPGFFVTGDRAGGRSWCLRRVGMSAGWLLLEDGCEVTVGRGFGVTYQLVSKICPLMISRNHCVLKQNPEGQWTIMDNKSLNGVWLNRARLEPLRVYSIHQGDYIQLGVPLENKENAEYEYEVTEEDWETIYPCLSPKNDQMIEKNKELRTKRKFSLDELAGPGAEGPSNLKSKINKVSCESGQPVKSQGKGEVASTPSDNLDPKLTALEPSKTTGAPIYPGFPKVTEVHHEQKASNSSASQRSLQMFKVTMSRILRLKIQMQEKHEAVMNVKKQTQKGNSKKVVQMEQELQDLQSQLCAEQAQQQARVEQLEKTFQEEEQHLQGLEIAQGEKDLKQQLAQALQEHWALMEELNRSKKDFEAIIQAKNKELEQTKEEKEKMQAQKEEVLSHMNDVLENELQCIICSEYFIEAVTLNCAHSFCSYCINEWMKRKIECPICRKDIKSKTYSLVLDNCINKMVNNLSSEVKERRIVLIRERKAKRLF
B6: Pre-mRNA-splicing factor SPF27 (Homo sapiens), O75934 (parent)
chain: MAGTGLVAGEVVVDALPYFDQGYEAPGVREAAAALVEEETRRYRPTKNYLSYLTAPDYSAFETDIMRNEFERLAARQPIELLSMKRYELPAPSSGQKNDITAWQECVNNSMAQLEHQAVRIENLELMSQHGCNAWKVYNENLVHMIEHAQKELQKLRKHIQDLNWQRKNMQLTAGSKLREMESNWVSLVSKNYEIERTIVQLENEIYQIKQQHGEANKENIRQDF
partner: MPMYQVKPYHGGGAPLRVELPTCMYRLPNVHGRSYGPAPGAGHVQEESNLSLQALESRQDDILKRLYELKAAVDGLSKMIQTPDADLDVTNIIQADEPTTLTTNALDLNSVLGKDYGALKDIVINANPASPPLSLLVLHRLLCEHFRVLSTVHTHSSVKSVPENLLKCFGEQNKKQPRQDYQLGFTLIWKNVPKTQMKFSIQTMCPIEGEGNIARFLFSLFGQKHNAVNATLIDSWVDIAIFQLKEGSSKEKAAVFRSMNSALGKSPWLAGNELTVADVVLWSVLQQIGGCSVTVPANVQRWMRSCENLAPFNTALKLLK
B7: AP-4 complex accessory subunit RUSC1 (Homo sapiens), Q9BVN2 (parent)
chain: MLSPQRALLCNLNHIHLQHVSLGLHLSRRPELQEGPLSTPPPPGDTGGKESRGPCSGTLVDANSNSPAVPCRCCQEHGPGLENRQDPSQEEEGAASPSDPGCSSSLSSCSDLSPDESPVSVYLRDLPGDEDAHPQPSIIPLEQGSPLASAGPGTCSPDSFCCSPDSCSGASSSPDPGLDSNCNALTTCQDVPSPGLEEEDERAEQDLPTSELLEADDGKIDAGKTEPSWKINPIWKIDTEKTKAEWKTTENNNTGWKNNGNVNSSWKSEPEKFDSGWKTNTRITDSGSKTDAGKIDGGWRSDVSEEPVPHRTITSFHELAQKRKRGPGLPLVPQAKKDRSDWLIVFSPDTELPPSGSPGGSSAPPREVTTFKELRSRSRAPAPPVPPRDPPVGWALVPPRPPPPPVPPRRKKNRPGLQPIAEGQSEEGRAVSPAAGEEAPAAKEPGAQAGLEVRSSWSFAGVPGAQRLWMAEAQSGTGQLQEQKKGLLIAVSVSVDKIISHFGAARNLVQKAQLGDSRLSPDVGHLVLTTLCPALHALVADGLKPFRKDLITGQRRSSPWSVVEASVKPGSSTRSLGTLYSQVSRLAPLSSSRSRFHAFILGLLNTKQLELWFSSLQEDAGLLSLLYLPTGFFSLARGGCPSLSTELLLLLQPLSVLTFHLDLLFEHHHHLPLGPPQAPAPPGPPPALQQTMQAMLHFGGRLAQSLRGTSKEAASDPSDSPNLPTPGSWWEQLTQASRVYASGGTEGFPLSRWAPGRHGTAAEEGAQERPLPTDEMAPGRGLWLGRLFGVPGGPAENENGALKSRRPSSWLPPTVSVLALVKRGAPPEMPSPQELEASAPRMVQTHRAVRALCDHTAARPDQLSFRRGEVLRVITTVDEDWLRCGRDGMEGLVPVGYTSLVL
B8: Cyclin-D1-binding protein 1 (Homo sapiens), O95273 (parent)
chain: MASATAPAAAVPTLASPLEQLRHLAEELRLLLPRVRVGEAQETTEEFNREMFWRRLNEAAVTVSREATTLTIVFSQLPLPSPQETQKFCEQVHAAIKAFIAVYYLLPKDQGITLRKLVRGATLDIVDGMAQLMEVLSVTPTQSPENNDLISYNSVWVACQQMPQIPRDNKAAALLMLTKNVDFVKDAHEEMEQAVEECDPYSGLLNDTEENNSDNHNHEDDVLGFPSNQDLYWSEDDQELIIPCLALVRASKACLKKIRMLVAENGKKDQVAQLDDIVDISDEISPSVDDLALSIYPPMCHLTVRINSAKLVSVLKKALEITKASHVTPQPEDSWIPLLINAIDHCMNRIKELTQSELEL
partner: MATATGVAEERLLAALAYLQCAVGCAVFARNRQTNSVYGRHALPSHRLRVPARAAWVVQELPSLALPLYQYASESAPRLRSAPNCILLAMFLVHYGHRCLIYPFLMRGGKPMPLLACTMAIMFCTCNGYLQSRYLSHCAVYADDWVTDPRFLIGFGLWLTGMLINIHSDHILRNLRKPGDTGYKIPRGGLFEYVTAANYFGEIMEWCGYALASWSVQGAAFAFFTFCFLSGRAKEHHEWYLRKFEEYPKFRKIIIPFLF
B9: Zinc finger protein Aiolos (Homo sapiens), Q9UKT9-1 (parent)
chain: MEDIQTNAELKSTQEQSVPAESAAVLNDYSLTKSHEMENVDSGEGPANEDEDIGDDSMKVKDEYSERDENVLKSEPMGNAEEPEIPYSYSREYNEYENIKLERHVVSFDSSRPTSGKMNCDVCGLSCISFNVLMVHKRSHTGERPFQCNQCGASFTQKGNLLRHIKLHTGEKPFKCHLCNYACQRRDALTGHLRTHSVEKPYKCEFCGRSYKQRSSLEEHKERCRTFLQSTDPGDTASAEARHIKAEMGSERALVLDRLASNVAKRKSSMPQKFIGEKRHCFDVNYNSSYMYEKESELIQTRMMDQAINNAISYLGAEALRPLVQTPPAPTSEMVPVISSMYPIALTRAEMSNGAPQELEKKSIHLPEKSVPSERGLSPNNSGHDSTDTDSNHEERQNHIYQQNHMVLSRARNGMPLLKEVPRSYELLKPPPICPRDSVKVINKEGEVMDVYRCDHCRVLFLDYVMFTIHMGCHGFRDPFECNMCGYRSHDRYEFSSHIARGEHRALLK
partner: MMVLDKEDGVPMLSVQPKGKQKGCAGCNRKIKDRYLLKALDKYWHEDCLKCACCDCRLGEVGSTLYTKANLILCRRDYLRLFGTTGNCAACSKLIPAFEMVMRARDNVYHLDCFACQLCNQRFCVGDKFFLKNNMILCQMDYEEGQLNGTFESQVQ

Variants of: B1
Conditions: with ddx6_human DDX6, P26196
ddx6_human DDX6, P26196, sequence (P26196 whole entry): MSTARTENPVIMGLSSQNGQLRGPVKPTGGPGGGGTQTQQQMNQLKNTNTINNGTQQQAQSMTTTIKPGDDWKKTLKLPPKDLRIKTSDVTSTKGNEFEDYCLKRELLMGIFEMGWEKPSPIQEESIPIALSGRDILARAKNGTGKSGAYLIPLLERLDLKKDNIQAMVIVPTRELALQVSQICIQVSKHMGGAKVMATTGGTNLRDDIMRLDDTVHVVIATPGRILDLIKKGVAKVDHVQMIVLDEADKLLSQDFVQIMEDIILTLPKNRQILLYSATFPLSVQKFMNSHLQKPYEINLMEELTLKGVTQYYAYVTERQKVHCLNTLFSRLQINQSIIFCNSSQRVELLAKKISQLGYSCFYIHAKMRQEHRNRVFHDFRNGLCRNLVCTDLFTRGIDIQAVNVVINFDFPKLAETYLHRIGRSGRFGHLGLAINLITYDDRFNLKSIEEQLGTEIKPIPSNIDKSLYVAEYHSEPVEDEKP

| Variant | effect of a mutation on the interaction |
| --- | --- |
| R232G | with no effect |

Variants of: B2
Conditions: with lasp1_human LASP1, Q14847

| Variant | effect of a mutation on the interaction |
| --- | --- |
| S173C | with no effect |

Variants of: B3
Conditions: with creb3_human CREB3, O43889

| Variant | effect of a mutation on the interaction |
| --- | --- |
| V124M | with no effect |

Variants of: B4
Conditions: with tle5_human TLE5, Q08117

| Variant | effect of a mutation on the interaction |
| --- | --- |
| G36C | with no effect |

Variants of: B5
Conditions: with rnf8_human RNF8, O76064

| Variant | effect of a mutation on the interaction |
| --- | --- |
| S104T | with no effect |
| D144G | with no effect |
| V147M | with no effect |

Variants of: B6
Conditions: with aimp2_human AIMP2, Q13155

| Variant | effect of a mutation on the interaction |
| --- | --- |
| N139S | with no effect |

Variants of: B7
Conditions: with pnma1_human PNMA1, Q8ND90
pnma1_human PNMA1, Q8ND90, sequence (Q8ND90 whole entry): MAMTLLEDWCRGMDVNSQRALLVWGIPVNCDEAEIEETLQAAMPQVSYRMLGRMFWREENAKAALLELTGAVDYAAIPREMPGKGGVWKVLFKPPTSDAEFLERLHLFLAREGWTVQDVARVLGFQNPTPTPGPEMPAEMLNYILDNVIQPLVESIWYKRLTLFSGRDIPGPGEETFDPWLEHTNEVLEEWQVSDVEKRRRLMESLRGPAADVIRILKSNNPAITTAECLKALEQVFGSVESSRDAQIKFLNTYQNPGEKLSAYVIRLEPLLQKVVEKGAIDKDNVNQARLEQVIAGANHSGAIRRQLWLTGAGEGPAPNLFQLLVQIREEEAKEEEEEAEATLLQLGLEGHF

| Variant | effect of a mutation on the interaction |
| --- | --- |
| V493A | with no effect |
| S614F | with no effect |
| G638S | with no effect |
| F665S | with no effect |
| D880Y | with no effect |

Variants of: B7
Conditions: with fam9b_human FAM9B

| Variant | effect of a mutation on the interaction |
| --- | --- |
| V493A | with no effect |
| S614F | disrupting interaction strength |
| G638S | with no effect |
| F665S | with no effect |
| D880Y | with no effect |

Variants of: B7
Conditions: with rbpms_human RBPMS

| Variant | effect of a mutation on the interaction |
| --- | --- |
| S614F | with no effect |
| G638S | with no effect |
| A795T | with no effect |

Variants of: B8
Conditions: with s5a1_human SRD5A1, P18405

| Variant | effect of a mutation on the interaction |
| --- | --- |
| I277T | disrupting interaction strength |

Variants of: B9
Conditions: with rbtn1_human LMO1, P25800

| Variant | effect of a mutation on the interaction |
| --- | --- |
| I338M | with no effect |
